US20230220115A1

Legend:
[1] = molecular target: recombinant human Fc gamma receptor CD16a 158V (FcRγIIIa) (human) (UniProt P08637)
[2] = molecular target: recombinant human Fc gamma receptor CD16b (FcRγIIIb) (human) (UniProt O75015)
[3] = molecular target: recombinant human Fc gamma receptor CD32a 131H (human) (UniProt P12318)
[4] = molecular target: recombinant human Fc gamma receptor CD32a 131R (human) (UniProt P12318)
[5] = molecular target: recombinant human Fc gamma receptor CD32b/c (human) (UniProt P31994)
recombinant human Fc gamma receptor CD32b/c (human), sequence (P31994 46-217): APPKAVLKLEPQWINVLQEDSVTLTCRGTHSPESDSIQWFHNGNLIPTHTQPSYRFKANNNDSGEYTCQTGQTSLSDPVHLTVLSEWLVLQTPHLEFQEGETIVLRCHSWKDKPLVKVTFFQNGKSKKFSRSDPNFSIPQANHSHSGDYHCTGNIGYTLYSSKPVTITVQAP

[6] = molecular target: recombinant human Fc gamma receptor CD64 (FcRγI) (human) (UniProt P12314)
recombinant human Fc gamma receptor CD64 (FcRγI) (human), sequence (P12314 16-288 limits assumed): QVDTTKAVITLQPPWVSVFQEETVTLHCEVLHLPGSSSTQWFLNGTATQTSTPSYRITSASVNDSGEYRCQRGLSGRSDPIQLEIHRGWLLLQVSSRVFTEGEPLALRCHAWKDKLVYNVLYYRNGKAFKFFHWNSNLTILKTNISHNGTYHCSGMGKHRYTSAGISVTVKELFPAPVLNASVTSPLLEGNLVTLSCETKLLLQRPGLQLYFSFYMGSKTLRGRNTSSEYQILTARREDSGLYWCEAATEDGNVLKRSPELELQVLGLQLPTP

[7] = molecular target: CD20 Lipoparticles (UniProt P11836)
CD20 Lipoparticles, sequence (P11836 whole entry): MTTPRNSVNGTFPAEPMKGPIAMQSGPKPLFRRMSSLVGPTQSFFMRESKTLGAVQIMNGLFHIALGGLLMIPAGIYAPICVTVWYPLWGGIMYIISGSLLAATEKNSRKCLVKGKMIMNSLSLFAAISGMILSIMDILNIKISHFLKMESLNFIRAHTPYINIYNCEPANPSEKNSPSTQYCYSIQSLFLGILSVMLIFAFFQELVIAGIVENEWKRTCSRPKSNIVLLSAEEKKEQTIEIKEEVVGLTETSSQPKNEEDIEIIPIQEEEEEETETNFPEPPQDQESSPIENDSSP

recombinant human Fc gamma receptor CD32a 131H (human), sequence (P12318 36-218): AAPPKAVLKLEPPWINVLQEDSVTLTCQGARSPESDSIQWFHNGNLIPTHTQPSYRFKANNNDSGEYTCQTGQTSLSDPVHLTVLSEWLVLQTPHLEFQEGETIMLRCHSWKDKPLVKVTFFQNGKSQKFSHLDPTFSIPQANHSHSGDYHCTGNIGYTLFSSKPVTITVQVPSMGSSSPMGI
recombinant human Fc gamma receptor CD32a 131R (human), sequence (P12318 36-218 H167R): as the sequence (P12318 36-218) above, with H132R counted along it
recombinant human Fc gamma receptor CD16a 158V (FcRγIIIa) (human), sequence (P08637 17-208 F176V limits assumed): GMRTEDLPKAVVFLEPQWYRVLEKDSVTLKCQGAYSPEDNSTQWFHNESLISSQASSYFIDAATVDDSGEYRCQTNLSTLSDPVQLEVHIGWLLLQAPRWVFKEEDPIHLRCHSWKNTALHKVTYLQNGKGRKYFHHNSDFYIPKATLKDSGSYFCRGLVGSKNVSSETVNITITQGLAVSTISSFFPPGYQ
recombinant human Fc gamma receptor CD16b (FcRγIIIb) (human), sequence (O75015 17-200 limits assumed): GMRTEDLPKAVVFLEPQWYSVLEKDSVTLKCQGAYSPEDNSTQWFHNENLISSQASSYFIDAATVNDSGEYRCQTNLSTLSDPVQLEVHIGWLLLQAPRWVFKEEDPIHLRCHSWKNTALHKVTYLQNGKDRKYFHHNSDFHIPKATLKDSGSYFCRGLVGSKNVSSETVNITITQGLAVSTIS

In the case of Rituxan (antibody), the Kd [1] is reported as 715 nM, the Kd [2] is reported as 1530 nM and the Kd [3] is reported as 892 nM. The Kd [4] was 1250 nM, the Kd [5] was 1520 nM and the Kd [6] was 52.8 nM. It also gave a Kd [7] of less than 0.001 nM.
